Among the data in publication PMC10973816 are localisation_or_trafficking and expression_or_secretion values, retold here.

Sequences and labels used below:
B1: mGluR6 (metabotropic glutamate receptor 6): N290Q (protein)
parent chain: MGRLRVLLLWLAWWLSQAGIAHGAGSVRLAGGLTLGGLFPVHARGAAGRACGTLKKEQGVHRLEAMLYALDRINADPELLPGVRLGARLLDTCSRDTYALEQALSFVQALIRGRGDGEEASVRCPGGVPPLRAAPPERVVAVVGASASSVSIMVANVLRLFAIPQISYASTAPELSDSTRYDFFSRVVPPDSYQAQAMVDIVRALGWNYVSTLASEGNYGESGVEAFVQISREAGGVCIAQSIKIPREPKPGEFHKVIRRLMETPNARGIIIFANEDDIRRVLEATRQANLTGHFLWVGSDSWGSKISPILNLEEEAVGAITILPKRASIDGFDQYFMTRSLENNRRNIWFAEFWEENFNCKLTSSGGQSDDSTRKCTGEERIGQDSTYEQEGKVQFVIDAVYAIAHALHSMHQALCPGHTGLCPAMEPTDGRTLLHYIRAVRFNGSAGTPVMFNENGDAPGRYDIFQYQATNGSASSGGYQAVGQWAEALRLDMEALQWSGDPHEVPPSQCSLPCGPGERKKMVKGVPCCWHCEACDGYRFQVDEFTCEACPGHMRPTPNHTGCRPTPVVRLTWSSPWAALPLLLAVLGIMATTTIIATFMRHNDTPIVRASGRELSYVLLTGIFLIYAITFLMVAEPCAAVCASRRLLLGLGTTLSYSALLTKTNRIYRIFEQGKRSVTPPPFISPTSQLVITFGLTSLQVVGVIAWLGAQPPHSVIDYEEQRTVDPEQARGVLKCDMSDLSLIGCLGYSLLLMVTCTVYAIKARGVPETFNEAKPIGFTMYTTCIIWLAFVPIFFGTAQSAEKIYIQTTTLTVSLSLSASVSLGMLYVPKTYVILFHPEQNVQKRKRSLKKTSTMAAPPKSENSEDAK
B2: mGluR6 (metabotropic glutamate receptor 6): 3Q!561 (protein)
parent chain: B1 parent chain
B3: mGluR6 (metabotropic glutamate receptor 6): N445Q (protein)
parent chain: B1 parent chain
B4: mGluR6 (metabotropic glutamate receptor 6): 4Q (protein)
parent chain: B1 parent chain
B5: mGluR6 (metabotropic glutamate receptor 6): N473Q (protein)
parent chain: B1 parent chain
B6: mGluR6 (metabotropic glutamate receptor 6): triple mutant (only N290 left) (protein)
parent chain: B1 parent chain
B7: mGluR6 (metabotropic glutamate receptor 6): triple mutant (only N473 left) (protein)
parent chain: B1 parent chain
B8: mGluR6 (metabotropic glutamate receptor 6): N561Q (protein)
parent chain: B1 parent chain
B9: mGluR6 (metabotropic glutamate receptor 6): 3Q!445 (protein)
parent chain: B1 parent chain

One data set is described as follows: Non-permeabilised mAb-1438 immunolabelling, HEK, untagged. The settings on record: glycan lost; control: wild type.
B1: the localisation_or_trafficking entry is given as “no change”.
The same measure, in the same setting: as for B2, the entry is “decreases”; as for B3, “decreases”; as for B4, “abolishes”.
On the same count and under the same terms, as for B5, the entry is “decreases”; as for B6, “decreases”; as for B7, “decreases”.
The same measure, in the same setting: as for B8, the entry is “decreases”; as for B9, “decreases”.

A further data set in a line: Non-permeabilised mAb-1438 immunolabelling, HEK, mGluR6-EGFP. The settings on record: glycan lost; control: wild type mGluR6-EGFP.
On to B3, for which the localisation_or_trafficking entry is given as “decreases”.
With B8, the localisation_or_trafficking result is reported as “decreases”.

Another data set in a line: EGFP in TRPM1-positive OPL puncta, electroporated mouse retina. The settings on record: glycan lost; control: wild type mGluR6-EGFP.
For the protein B1, the localisation_or_trafficking result is recorded as “no change”.
Still for that read-out and setting: with B2 the entry was “abolishes”.
Consider B3, for which the localisation_or_trafficking entry is on record as “no change”.
Turning to B4, the localisation_or_trafficking result is listed as “abolishes”.
Same read-out and setting: as for B5, the entry is “no change”.
With B8, the localisation_or_trafficking result is on record as “no change”.
Same read-out and setting: as for B9, the entry is “no change”.

A further data set is described as follows: Total EGFP fluorescence, HEK. Conditions: glycan lost; control: wild type mGluR6-EGFP.
As for B2, the expression_or_secretion result is “decreases, 3Q!561 had the highest expression among the triple mutants”.
Same read-out and setting: as for B4, the entry is “decreases”; as for B6, “decreases”.
The same measure, in the same setting: with B7 the entry was “decreases”; with B8, “decreases”; with B9, “decreases”.

A further data set in a line: Permeabilised mAb-1438 immunolabelling, HEK, untagged. The settings on record: glycan lost; control: wild type.
Take B2: the expression_or_secretion entry is “decreases”.
The same measure, in the same setting: as for B4, the entry is “decreases”.
Still for that read-out and setting: as for B6, the entry is “decreases”; as for B7, “decreases”; as for B9, “decreases”.
